# What was measured:
# human VEGF-A165 (human) [1] = molecular target: human VEGF-A165 (human)
# murine PlGF-2 (mouse) [2] = molecular target: T1, murine PlGF-2 (mouse) (UniProt P49764)
# T1 sequence: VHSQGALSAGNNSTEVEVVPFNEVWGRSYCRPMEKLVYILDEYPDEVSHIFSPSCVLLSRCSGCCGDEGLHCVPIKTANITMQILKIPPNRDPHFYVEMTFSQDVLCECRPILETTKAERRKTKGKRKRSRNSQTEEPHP
# human PlGF-2 (human) [3] = molecular target: T2, human PlGF-2 (human) (UniProt P49763)
# T2 sequence: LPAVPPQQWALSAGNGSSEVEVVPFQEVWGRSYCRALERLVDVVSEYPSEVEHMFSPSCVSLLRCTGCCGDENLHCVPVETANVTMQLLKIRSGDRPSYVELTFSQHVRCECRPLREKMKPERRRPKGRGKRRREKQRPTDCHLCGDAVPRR
# human VEGF-A165 (human) [4] = molecular target: human VEGF-A165 (human); remark: listed apart in the source
# murine PlGF-2 (mouse) [5] = molecular target: T1, murine PlGF-2 (mouse); remark: listed apart in the source
# human PlGF-2 (human) [6] = molecular target: T2, human PlGF-2 (human); remark: listed apart in the source
# [7] = molecular target: VEGF Trap (aflibercept) (human); experiment: KinExA solution equilibrium assay; KinExA 3000, room temperature (25°C); VEGF Trap (1–50 pM) equilibrated 10–96 h with varying ligand; unbound inhibitor captured on VEGF-A165-coupled Azlactone beads and detected with Cy5 anti-human IgG; one-site homogeneous binding model
# human VEGFR1-hFc (human) [8] = molecular target: human VEGFR1-hFc (human) (UniProt P17948)
# [9] = molecular target: VEGF Trap (aflibercept) (human); experiment: SPR; Biacore 3000, CM5 chip, 25°C, HBS-T (10 mM Hepes, 150 mM NaCl, 3.4 mM EDTA, 0.05% polysorbate 20, pH 7.4); VEGF Trap or receptor-Fc captured at low density on amine-coupled Protein A, ligands injected (1.0–0.062 nM VEGF-A, 2.5–0.156 nM VEGF-B(10-108), 5.0–0.078 nM PlGF); kd of VEGF-A ligands by the 'fixed kd' procedure on a Biacore 2000 (~2–3 h); KD = kd/ka
# human VEGFR2-hFc (human) = human VEGFR2-hFc (human) (UniProt P35968); experiment: as above
# human VEGFR1-hFc (human) [10] = molecular target: human VEGFR1-hFc (human) (UniProt P17948); experiment: as above
# Sequence of human VEGFR2-hFc (human) (P35968 20-764): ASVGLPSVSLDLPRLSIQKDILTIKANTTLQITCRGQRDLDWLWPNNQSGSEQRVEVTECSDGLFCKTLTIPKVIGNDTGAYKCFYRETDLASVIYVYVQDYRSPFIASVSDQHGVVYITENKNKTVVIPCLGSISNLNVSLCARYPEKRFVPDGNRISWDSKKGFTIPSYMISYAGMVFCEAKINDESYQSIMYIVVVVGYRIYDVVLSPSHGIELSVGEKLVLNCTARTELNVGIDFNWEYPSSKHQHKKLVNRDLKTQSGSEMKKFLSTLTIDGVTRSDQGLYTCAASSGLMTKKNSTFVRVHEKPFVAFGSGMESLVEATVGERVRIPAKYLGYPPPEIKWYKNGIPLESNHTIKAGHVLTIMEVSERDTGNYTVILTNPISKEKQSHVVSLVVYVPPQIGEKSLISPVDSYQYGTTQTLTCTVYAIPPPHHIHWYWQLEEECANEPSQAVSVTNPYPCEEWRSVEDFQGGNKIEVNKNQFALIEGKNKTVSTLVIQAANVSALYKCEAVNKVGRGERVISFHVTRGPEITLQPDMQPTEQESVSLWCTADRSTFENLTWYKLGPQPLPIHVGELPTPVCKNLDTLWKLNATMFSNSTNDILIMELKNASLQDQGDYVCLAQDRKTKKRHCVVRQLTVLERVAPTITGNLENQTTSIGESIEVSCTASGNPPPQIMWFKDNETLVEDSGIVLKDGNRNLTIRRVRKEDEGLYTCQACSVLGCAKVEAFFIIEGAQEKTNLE
# Sequence of VEGF Trap (aflibercept) (Fc fusion) (chain): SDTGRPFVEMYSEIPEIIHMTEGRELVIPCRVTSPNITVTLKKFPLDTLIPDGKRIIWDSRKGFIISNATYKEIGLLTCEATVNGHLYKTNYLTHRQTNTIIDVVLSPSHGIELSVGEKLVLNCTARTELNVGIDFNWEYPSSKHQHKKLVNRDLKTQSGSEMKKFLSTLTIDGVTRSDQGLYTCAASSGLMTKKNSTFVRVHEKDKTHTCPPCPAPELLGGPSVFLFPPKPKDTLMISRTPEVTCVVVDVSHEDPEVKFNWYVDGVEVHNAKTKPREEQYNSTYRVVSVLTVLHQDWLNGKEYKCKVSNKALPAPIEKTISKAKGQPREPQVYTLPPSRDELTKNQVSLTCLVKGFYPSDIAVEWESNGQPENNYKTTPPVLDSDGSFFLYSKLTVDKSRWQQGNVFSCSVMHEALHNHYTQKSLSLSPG
# Sequence of human VEGFR1-hFc (human) (P17948 27-758): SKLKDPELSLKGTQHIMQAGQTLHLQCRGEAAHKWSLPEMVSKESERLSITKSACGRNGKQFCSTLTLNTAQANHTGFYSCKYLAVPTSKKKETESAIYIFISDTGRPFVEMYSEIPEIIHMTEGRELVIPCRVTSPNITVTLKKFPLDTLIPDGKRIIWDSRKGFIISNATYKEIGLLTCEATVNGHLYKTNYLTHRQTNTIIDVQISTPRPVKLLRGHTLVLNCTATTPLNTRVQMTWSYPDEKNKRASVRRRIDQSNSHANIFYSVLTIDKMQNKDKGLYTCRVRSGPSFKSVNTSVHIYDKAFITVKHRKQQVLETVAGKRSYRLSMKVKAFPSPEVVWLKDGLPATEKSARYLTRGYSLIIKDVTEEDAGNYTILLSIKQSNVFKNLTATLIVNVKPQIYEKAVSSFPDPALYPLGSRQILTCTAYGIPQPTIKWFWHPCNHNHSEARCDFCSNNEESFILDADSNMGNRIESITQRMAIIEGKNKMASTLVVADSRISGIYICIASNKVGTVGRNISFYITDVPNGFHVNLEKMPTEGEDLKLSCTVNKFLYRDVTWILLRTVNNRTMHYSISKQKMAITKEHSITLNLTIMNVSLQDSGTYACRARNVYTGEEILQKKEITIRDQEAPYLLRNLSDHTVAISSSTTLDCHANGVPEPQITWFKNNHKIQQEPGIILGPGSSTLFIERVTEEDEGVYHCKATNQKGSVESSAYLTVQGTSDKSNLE
"reduction of HUVEC migration induced by 130 pM VEGF-A165 (modified Boyden chamber; inhibitor 0.013–13 nM), at a 1:1 molar ratio of VEGF Trap and VEGF-A165 (human VEGF-A165 (human) [1]) [%]",IC50 of blocking luciferase activity induced by 20 pM hVEGF-A121 in the HEK293/VEGFR1 reporter cell line (blocks VEGF-A121 with VEGFR1) (human VEGF-A121 (human)) [pM],IC50 of blocking luciferase activity induced by 20 pM mPlGF-2 in the HEK293/VEGFR1 reporter cell line (blocks mPlGF-2 with VEGFR1) (murine PlGF-2 (mouse) [2]) [pM],IC50 of blocking luciferase activity induced by 40 pM hPlGF-2 in the HEK293/VEGFR1 reporter cell line (blocks hPlGF-2 with VEGFR1) (human PlGF-2 (human) [3]) [pM],IC50 of blocking luciferase activity induced by 20 pM hVEGF-A165 in the HEK293/VEGFR1 reporter cell line (blocks VEGF-A165 with VEGFR1) (human VEGF-A165 (human) [4]) [pM],block of HUVEC migration induced by mouse PlGF-2 (3.5 nM) by a 100-fold excess of VEGF Trap (modified Boyden chamber) (murine PlGF-2 (mouse) [5]) [%],block of HUVEC migration induced by human PlGF-2 (7.1 nM) by a 100-fold excess of VEGF Trap (modified Boyden chamber) (human PlGF-2 (human) [6]) [%],Kd [7] [pM],"EC50 of luciferase activation in HEK293/VEGFR1 cells (dose response, 0.022 pM to 4.0 nM) (human VEGFR1-hFc (human) [8]) [pM]",Kd [9] [pM],koff [9] [s⁻¹],kon [9] [M⁻¹ s⁻¹],Kd (human VEGFR2-hFc (human)) [pM],koff (human VEGFR2-hFc (human)) [s⁻¹],kon (human VEGFR2-hFc (human)) [M⁻¹ s⁻¹],Kd (human VEGFR1-hFc (human) [10]) [pM],koff (human VEGFR1-hFc (human) [10]) [s⁻¹],kon (human VEGFR1-hFc (human) [10]) [M⁻¹ s⁻¹],Substance
90,15,104,2890,16,80,80,–,–,–,–,–,–,–,–,–,–,–,VEGF Trap (aflibercept) (Fc fusion)
–,–,–,–,–,–,–,0.18,13,0.36,1.35e-05,3.75e+07,–,–,–,–,–,–,human VEGF-A121 (ligand)
–,–,–,–,–,–,–,0.66,17,0.49,2.01e-05,4.1e+07,88.8,0.00135,1.52e+07,9.33,0.00028,3e+07,human VEGF-A165 (ligand)
–,–,–,–,–,–,–,17.5,–,1.92,6.74e-05,3.52e+07,–,–,–,–,–,–,human VEGF-B(10-108) (domain or fragment)

# Source: PMC3338918
